Source: patent US20190037818

What was measured:
Assay in all cases: cell_activity
Settings in all cases: Cel-1 assay; activity of the TALEN pair
[1] = system: XTN TALEN 2 right monomer
XTN TALEN 2 left monomer = system: XTN TALEN 2 left monomer
[2] = system: XTN TALEN 1 right monomer
XTN TALEN 3 left monomer = system: XTN TALEN 3 left monomer
XTN TALEN 1 left monomer = system: XTN TALEN 1 left monomer
[3] = system: XTN TALEN 3 right monomer

TGCAGTATGCGGACCTTTATCTATGGCTGGAATTTCCTAAGTGCAGGGA (double strand) [TALEN 2 target, right half-site]
activity [1]: 9%

TGCAGTATGCGGACCTTTATCTATGGCTGGAATTTCCTAAGTGCAGGGA (double strand) [TALEN 2 target, left half-site]
activity (XTN TALEN 2 left monomer): 9%

TATGCGGACCTTTATCTATGGCTGGAATTTCCTAAGTGCAGGGAGCCACA (double strand) [TALEN 1 target, right half-site]
activity [2]: 5%

TCTGCCAACCTCACATACAGTATGTGGTTTAGTCATTGAGCAAATGCA (double strand) [TALEN 3 target, left half-site]
activity (XTN TALEN 3 left monomer): 3%

TATGCGGACCTTTATCTATGGCTGGAATTTCCTAAGTGCAGGGAGCCACA (double strand) [TALEN 1 target, left half-site]
activity (XTN TALEN 1 left monomer): 5%

TCTGCCAACCTCACATACAGTATGTGGTTTAGTCATTGAGCAAATGCA (double strand) [TALEN 3 target, right half-site]
activity [3]: 3%
